The target of the experiment is K18 WT tau (tau four-repeat domain), poly-histidine tag intact (human). Description: SDS-PAGE and Western blot (SDS-resistant dimers and aggregates); soluble and pellet fractions of IPTG-induced E. coli, 15% Tris-glycine SDS-PAGE, blot with polyclonal anti-human tau A0024. (In general: A western blot detects proteins with antibodies after separation by electrophoresis.)

In general, stoichiometry N refers to a count of units in the complex or per binding partner. “K18 WT tau (tau four-repeat domain), poly-histidine tag intact (domain or fragment)” had a stoichiometry N of 2.

The values are drawn from publication PMC5147519.
